Measurements as given in US8329653 (BUCK INSTITUTE FOR AGE RESEARCH, dated 2012).

B1: Aβ1-17 (the 17 first amino acids of Aβ) (peptide, UniProt P05067 672-688, looked up)
peptide: DAEFRHDSGYEVHHQKL
notes: domain: Aβ1-17
B2: endogenous mouse p75^ntr (E16.5 embryonic cortex) (receptor, UniProt Q9Z0W1 32-427, looked up)
chain: KETCSTGMYTHSGECCKACNLGEGVAQPCGANQTVCEPCLDSVTFSDVVSATEPCKPCTECLGLQSMSAPCVEADDAVCRCSYGYYQDEETGRCEACSVCGVGSGLVFSCQDKQNTVCEECPEGTYSDEANHVDPCLPCTVCEDTERQLRECTPWADAECEEIPGRWITRSTPPEGSDVTTPSTQEPEAPPERDLIASTVADTVTTVMGSSQPVVTRGTADNLIPVYCSILAAVVVGLVAYIAFKRWNSCKQNKQGANSRPVNQTPPPEGEKLHSDSGISVDSQSLHDQQTHTQTASGQALKGDGNLYSSLPLTKREEVEKLLNGDTWRHLAGELGYQPEHIDSFTHEACPVRALLASWGAQDSATLDALLAALRRIQRADIVESLCSESTATSPV
notes: whole, on cells; also called P75-NGFR
B3: endogenous mouse TrkC (E16.5 embryonic cortex) (receptor)
chain: not shown
notes: whole, on cells
B4: endogenous mouse bFGF (E16.5 embryonic cortex) (ligand, UniProt P15655 10-154, looked up)
chain: PALPEDGGAAFPPGHFKDPKRLYCKNGGFFLRIHPDGRVDGVREKSDPHVKLQLQAEERGVVSIKGVCANRYLAMKEDGRLLASKCVTEECFFFERLESNNYNTYRSRKYSSWYVALKRTGQYKLGSKTGPGQKAILFLPMSAKS

Key:
[1] = biological target: T1, Human Net 1-FlagM2 (Apotech), recombinant netrin-1 (human, UniProt O95631 25-604); assay: ELISA, Aβ1-17 coated at 0.07 µg/ml, various netrin-1 concentrations
T1 construct: also called recombinant netrin-1 (Apotech Corp.); not shown: FlagM2 tag
Method: An anti-mouse antibody coupled to HRP (Jackson ImmunoResearch, Inc) was added at a concentration of 0.8 μg/ml for 1 hour at 37° C. Colorimetric intensity was measured at a wavelength of 490 nm using a Victor station (Wallac).

[2] = biological target: T2, endogenous mouse netrin-1 (E16.5 embryonic cortex) (mouse, UniProt O09118 25-604); assay: co-immunoprecipitation of endogenous proteins from E16.5 mouse cortex
T2 construct: also called mNet1

[3] = biological target: T3, endogenous mouse APP (embryonic cortex) (mouse, UniProt P12023 18-770); assay: as above
T3 construct: whole, on cells; also called endogenous APP

| Binder | binding result [2] | also measured |
| --- | --- | --- |
| B1 | – | Kd [1]: 30 nM |
| B2 | no binding | – |
| B3 | no binding | – |
| B4 | – | binding result [3]: no binding |
